Source: patent publication US20140294846
Where two headings read alike, the source gives them in different places.

B1: full-length mouse ADAMTS-1, v5-epitope tagged (wild type) (protein)
chain: ARGAHGRPTEEDEELVLPSLERAPGHDSTTTRLRLDAFGQQLHLKLQPDSGFLAPGFTLQTVGRSPGSEAQHLDPTGDLAHCFYSGTVNGDPGSAAALSLCEGVRGAFYLQGEEFFIQPAPGVATERLAPAVPEEESSARPQFHILRRRRRGSGGAKCGVMDDETLPTSDSRPESQNTRNQWPVRDPTPQDAGKPSGPGSIRKKRFVSSPRYVETMLVADQSMADFHGSGLKHYLLTLFSVAARFYKHPSIRNSISLVVVKILVIYEEQKGPEVTSNAALTLRNFCSWQKQHNSPSDRDPEHYDTAILFTRQDLCGSHTCDTLGMADVGTVCDPSRSCSVIEDDGLQAAFTTAHELGHVFNMPHDDAKHCASLNGVSGDSHLMASMLSSLDHSQPWSPCSAYMVTSFLDNGHGECLMDKPQNPIKLPSDLPGTLYDANRQCQFTFGEESKHCPDAASTCTTLWCTGTSGGLLVCQTKHFPWADGTSCGEGKWCVSGKCVNKTDMKHFATPVHGSWGPWGPWGDCSRTCGGGVQYTMRECDNPVPKNGGKYCEGKRVRYRSCNIEDCPDNNGKTFREEQCEAHNEFSKASFGNEPTVEWTPKYAGVSPKDRCKLTCEAKGIGYFFVLQPKVVDGTPCSPDSTSVCVQGQCVKAGCDRIIDSKKKFDKCGVCGGNGSTCKKMSGIVTSTRPGYHDIVTIPAGATNIEVKHRNQRGSRNNGSFLAIRAADGTYILNGNFTLSTLEQDLTYKGTVLRYSGSSAALERIRSFSPLKEPLTIQVLMVGHALRPKIKFTYFMKKKTESFNAIPTFSEWVIEEWGECSKTCGSGWQRRVVQCRDINGHPASECAKEVKPASTRPCADLPCPHWQVGDWSPCSKTCGKGYKKRTLKCVSHDGGVLSNESCDPLKKPKHYIDFCTLTQCS

Assays:
[1] = tested on: versican in the ECM materials deposited by TA3 transfectants
[2] = biological target: versican in the ECM materials deposited by TA3 transfectants; remark: listed apart in the source

| Molecule | degradation of versican in ECM of TA3 transfectants (Western blot, anti-DP antibody) [1] | degradation of versican in ECM of TA3 transfectants (Western blot, anti-DP antibody) [2] | auto-proteolytic cleavage of purified ADAMTS-1 in vitro (Western blot, anti-v5) (P97857) |
| --- | --- | --- | --- |
| ADAMTS-1E/Q, protease-dead mutant of mouse ADAMTS-1 (E386 to Q), v5-epitope tagged | expression of ADAMTS-1E/Q but not ADAMTS-1NTF, ADAMTS-1CTF inhibits the degradation | – | – |
| B1 | – | increased expression of exogenous ADAMTS-1 but not ADAMTS-1minusTSP-1 on top of the endogenous ADAMTS-1 promotes degradation of versican | ADAMTS-1 was auto-proteolytically cleaved to release v5-epitope tagged C-terminal cleavage fragments |
